The target in the first experiment is HLA-A02.01 (human). The experiment in a line: peptide-HLA class I affinity, method not described. The settings on record: remark: other sources report otherwise.
On to LVVVGAVGV [KRAS, G12V peptide …], for which the Measured Affinity was determined as 682 nM.
The molecule LVVVGADGV [KRAS, G12D peptide …] yielded a Measured Affinity of 977 nM.
Same read-out and setting: the figure for LVVVGACGV [KRAS, G12C peptide …] is 667 nM.

The target in the next experiment is HLA-A02.01 (human). Kind of experiment: peptide-HLA class I complex stability, method not described. As to conditions: remark: other sources report otherwise.
With LVVVGAVGV [KRAS, G12V peptide …], the Measured stability turned out to be 0.6 h.
Molecule LVVVGADGV [KRAS, G12D peptide …] returned a Measured stability of 0 h.
As to LVVVGACGV [KRAS, G12C peptide …], the Measured stability was determined as 0.6 h.

For the origin of these results see patent US12246067.
